Results as given in patent US11441131B2, “Heparosan synthases and use thereof for saccharide synthesis” (The Regents of the University of California, priority 2019, dated 2022).

Legend:
[1] = Protein expression and purification; parameters: species or system E. coli BL21 (DE3); conditions: per L culture
Description: Protein expression and purification. The plasmid-bearing E. coli BL21(DE3) cells were cultured in 1 L of LB-rich media (10 g/L tryptone, 5 g/L yeast extract and 10 g/L NaCl) supplemented with ampicillin (100 μg/mL). Expression of the target protein was achieved by inducing the E. coli culture with 0.1 mM of isopropyl-1-thio-β-D-galactopyranoside (IPTG) when OD600 nm reached 0.8-1.0, followed by incubating at 20° C. for 20 h with shaking at 250 rpm in a C25KC incubator shaker (New Brunswick Scientific, Edison, N.J.). Histidine-tagged target proteins were purified from cell lysate. To obtain the cell lysate, cell pellet harvested by centrifugation at 2,795 g for 50 min was resuspended (25 mL/L cell culture) in lysis buffer (Tris-HCl, 100 mM, pH 8.0 with 0.1% Triton X-100). Sonication protocol was 2 s (sonication)/3 s (rest) for a total of 6 min on ice. Lysed cells were centrifuged at 5,000 g for 50 min and the supernatant (lysate) was collected. Purification of histidine-tagged proteins from the lysate was achieved using a Ni′-resin column. The column was pre-equilibrated with 10 column volumes of binding buffer (5 mM imidazole, 0.5 M NaCl, 50 mM Tris-HCl, pH 7.5). The lysate was then loaded, and the column was washed with 10 column volumes of binding buffer and 10 column volumes of washing buffer (16 mM imidazole, 0.5 M NaCl, 50 mM Tris-HCl, pH 7.5). The target protein was eluted with Tris-HCl buffer (50 mM, pH 7.5) containing imidazole (200 mM) and NaCl (0.5 M). The fractions containing the purified enzymes were collected, and stored at 4° C.

[2] = Isoelectric point (pI); format: physicochemical
[3] = Behaviour during dialysis; format: physicochemical
[4] = Effect of UDP concentration on reverse glycosylation activity; format: biochemical; conditions: O6 1 mM, enzyme 15 μM
Description: Reactions were stopped by heating reaction mixtures at 70° C. for 10 min followed by incubation on ice for 30 min, and centrifugation at 11,337 g for 15 min. Supernatants were analyzed using an Infinity 1290 II HPLC equipped with 1260 Infinity II Diode Array Detector WR (monitored at 254 nm, Agilent Technologies, CA). An AdvanceBio Glycan Mapping column (1.8 μm particle, 2.1×150 mm, Agilent Technologies, CA) was used with a gradient (13 min) of 0.5 mL/min for 90% to 70% acetonitrile and a solution of water with 0.1% TFA for analysis.

[5] = Relative activity comparison with acceptor GlcNAcαProNHFmoc and UDP-GlcA; format: biochemical; conditions: enzyme 1.5 mg/mL; percentage conversion, 30 min, HPLC
Description: (§1) Reactions were stopped by heating reaction mixtures at 70° C. for 10 min, followed by incubation on ice for 30 min and centrifugation at 11,337 g for 15 min.

[6] = Relative activity comparison with acceptor GlcAβProNHFmoc (O1) and UDP-GlcNAc; format: biochemical; conditions: for GlcNAcα1-4GlcAβProNHFmoc (%): percentage conversion, 30 min, HPLC
Description: as §1

[7] = Thermostability assay; format: physicochemical; conditions: 30 min incubation at 25-50 °C
Description: Thermostability assays. […] UHPLC detection was carried out similarly as described above for kinetics studies.

[8] = Survival of lyophilization assay; format: physicochemical; conditions: dialysis, rehydration, compared with freshly prepared enzyme
Description: Survival of lyophilization assays. […] The resulting powders were stored at −80° C. for 3 days. For activity assays, the dried powder was dissolved in water. […] Chromatographic separation and detection were achieved similarly as described above for the kinetics studies except that an isocratic flow (0.3 mL/min) of a mixed solvent (32% acetonitrile/68% water with 0.1% TFA) was used for elution.

[9] = Coupled-enzyme reverse glycosylation assay with NmLgtA and LacβMU; format: biochemical; conditions: His6-Δ80PmHS2 +, UDP-GlcNAc −
Description: Coupled-enzyme reverse glycosylation assay. […] Reactions were stopped by heating reaction mixtures at 70° C. for 10 min followed by incubation on ice for 30 min and centrifuged at 11,337 g for 15 min.

B1: His6-PmHS2: N-terminal His6-tagged wild-type Pasteurella multocida heparosan synthase 2 (SEQ ID NO:6) (protein)
chain: MGSSHHHHHHSSGLVPRGSHMKGKKEMTQKQMTKNPPQHEKENELNTFQNKIDSLKTTLNKDIISQQTLLAKQDSKHPLSESLENENKLLLKQLQLVLQEFEKIYTYNQALEAKLEKDKQTTSITDLYNEVAKSDLGLVKETNSANPLVSIIMTSHNTAQFIEASINSLLLQTYKNIEIIIVDDDSSDNTFEIASRIANTTSKVRVFRLNSNLGTYFAKNTGILKSKGDIIFFQDSDDVCHHERIERCVNILLANKETIAVRCAYSRLAPETQHIIKVNNMDYRLGFITLGMHRKVFQEIGFFNCTTKGSDDEFFHRIAKYYGKEKIKNLLLPLYYNTMRENSLFTDMVEWIDNHNIIQKMSDTRQHYATLFQAMHNETASHDFKNLFQFPRIYDALPVPQEMSKLSNPKIPVYINICSIPSRIAQLQRIIGILKNQCDHFHIYLDGYVEIPDFIKNLGNKATVVHCKDKDNSIRDNGKFILLEELIEKNQDGYYITCDDDIIYPSDYINTMIKKLNEYDDKAVIGLHGILFPSRMTKYFSADRLVYSFYKPLEKDKAVNVLGTGTVSFRVSLFNQFSLSDFTHSGMADIYFSLLCKKNNILQICISRPANWLTEDNRDSETLYHQYRDNDEQQTQLIMENGPWGYSSIYPLVKNHPKFTDLIPCLPFYFL
modifications: N-terminal His6 tag
- expression level [1]: 17 to 20 mg/L
- pI [2]: 6.83
- behaviour during dialysis [3]: precipitated easily during dialysis
- O6 (%) ([4]; UDP 0 (nM)): 100%
- O1 (%) ([4]; UDP 1 (nM)): 3.3%
- O2 (%) ([4]; UDP 1 (nM)): 2.7%
- O3 (%) ([4]; UDP 1 (nM)): 1.4%
- O4 (%) ([4]; UDP 1 (nM)): 9.6%
- O5 (%) ([4]; UDP 1 (nM)): 3.0%
- O6 (%) ([4]; UDP 1 (nM)): 64.2%
- O8 (%) ([4]; UDP 1 (nM)): 13.5%
- O10 (%) ([4]; UDP 1 (nM)): 1.9%
- O1 (%) ([4]; UDP 5 (nM)): 3.9%
- O2 (%) ([4]; UDP 5 (nM)): 5.5%
- O3 (%) ([4]; UDP 5 (nM)): 1.1%
- O4 (%) ([4]; UDP 5 (nM)): 8.8%
- O5 (%) ([4]; UDP 5 (nM)): 4.8%
- O6 (%) ([4]; UDP 5 (nM)): 52.3%
- O7 (%) ([4]; UDP 5 (nM)): 0.4%
- O8 (%) ([4]; UDP 5 (nM)): 16.0%
- O10 (%) ([4]; UDP 5 (nM)): 5.7%
- O12 (%) ([4]; UDP 5 (nM)): 0.7%
- O1 (%) ([4]; UDP 10 (nM)): 3.1%
- O2 (%) ([4]; UDP 10 (nM)): 9.0%
- O3 (%) ([4]; UDP 10 (nM)): 0.6%
- O4 (%) ([4]; UDP 10 (nM)): 17.7%
- O5 (%) ([4]; UDP 10 (nM)): 9.1%
- O6 (%) ([4]; UDP 10 (nM)): 36.2%
- O7 (%) ([4]; UDP 10 (nM)): 1.1%
- O8 (%) ([4]; UDP 10 (nM)): 16.3%
- O9 (%) ([4]; UDP 10 (nM)): 0.4%
- O10 (%) ([4]; UDP 10 (nM)): 4.6%
- O12 (%) ([4]; UDP 10 (nM)): 1.3%
- GlcAβ1-4GlcNAcαProNHFmoc (%) [5]: 10.3 ± 0.3%
- efficiency of GlcAβProNHFmoc (O1) over GlcNAcαProNHFmoc as substrate in disaccharide production [6]: 157 fold
- GlcNAcα1-4GlcAβProNHFmoc (%) ([6]; enzyme 0.06 mg/mL): 64.5 ± 1.0%
- GlcNAcα1-4GlcAβProNHFmoc (%) ([6]; enzyme 1.5 mg/mL): 100%

B2: His6-Δ80PmHS2: N-terminal His6-tagged and N-terminal 80 amino acid-truncated PmHS2 (SEQ ID NO:3) (protein)
chain: MGSSHHHHHHSFEKIYTYNQALEAKLEKDKQTTSITDLYNEVAKSDLGLVKETNSANPLVSIIMTSHNTAQFIEASINSLLLQTYKNIEIIIVDDDSSDNTFEIASRIANTTSKVRVFRLNSNLGTYFAKNTGILKSKGDIIFFQDSDDVCHHERIERCVNILLANKETIAVRCAYSRLAPETQHIIKVNNMDYRLGFITLGMHRKVFQEIGFFNCTTKGSDDEFFHRIAKYYGKEKIKNLLLPLYYNTMRENSLFTDMVEWIDNHNIIQKMSDTRQHYATLFQAMHNETASHDFKNLFQFPRIYDALPVPQEMSKLSNPKIPVYINICSIPSRIAQLQRIIGILKNQCDHFHIYLDGYVEIPDFIKNLGNKATVVHCKDKDNSIRDNGKFILLEELIEKNQDGYYITCDDDIIYPSDYINTMIKKLNEYDDKAVIGLHGILFPSRMTKYFSADRLVYSFYKPLEKDKAVNVLGTGTVSFRVSLFNQFSLSDFTHSGMADIYFSLLCKKNNILQICISRPANWLTEDNRDSETLYHQYRDNDEQQTQLIMENGPWGYSSIYPLVKNHPKFTDLIPCLPFYFL
modifications: N-terminal His6 tag
- expression level [1]: 60 to 80 mg/L
- increase of Tso (temperature at which the enzyme retains 50% of maximum activity) compared to WT [7]: approximately 7 °C
- pI [2]: 6.61
- activity after lyophilization [8]: without loss of activity
- behaviour during dialysis [3]: remained soluble
- GlcNAcβ1-3LacβMU (%) ([9]; Reaction 1: NmLgtA +, UDP +): 9.7 ± 0.6%
- LacβMU (%) ([9]; Reaction 1: NmLgtA +, UDP +): 90.3 ± 0.6%
- O2 (%) ([9]; Reaction 1: NmLgtA +, UDP +): 9.3%
- O3 (%) ([9]; Reaction 1: NmLgtA +, UDP +): 1.0%
- O4 (%) ([9]; Reaction 1: NmLgtA +, UDP +): 16.2%
- O5 (%) ([9]; Reaction 1: NmLgtA +, UDP +): 4.4%
- O6 (%) ([9]; Reaction 1: NmLgtA +, UDP +): 36.2%
- O7 (%) ([9]; Reaction 1: NmLgtA +, UDP +): 3.0%
- O8 (%) ([9]; Reaction 1: NmLgtA +, UDP +): 20.4%
- O9 (%) ([9]; Reaction 1: NmLgtA +, UDP +): 0.6%
- O10 (%) ([9]; Reaction 1: NmLgtA +, UDP +): 7.3%
- O12 (%) ([9]; Reaction 1: NmLgtA +, UDP +): 1.7%
- LacβMU (%) ([9]; Reaction 2: NmLgtA −, UDP +): 100%
- O2 (%) ([9]; Reaction 2: NmLgtA −, UDP +): 11.4%
- O3 (%) ([9]; Reaction 2: NmLgtA −, UDP +): 0.7%
- O4 (%) ([9]; Reaction 2: NmLgtA −, UDP +): 23.7%
- O5 (%) ([9]; Reaction 2: NmLgtA −, UDP +): 5.1%
- O6 (%) ([9]; Reaction 2: NmLgtA −, UDP +): 35.1%
- O7 (%) ([9]; Reaction 2: NmLgtA −, UDP +): 1.2%
- O8 (%) ([9]; Reaction 2: NmLgtA −, UDP +): 15.8%
- O9 (%) ([9]; Reaction 2: NmLgtA −, UDP +): 0.5%
- O10 (%) ([9]; Reaction 2: NmLgtA −, UDP +): 5.1%
- O12 (%) ([9]; Reaction 2: NmLgtA −, UDP +): 1.2%
- LacβMU (%) ([9]; Reaction 4: NmLgtA +, UDP −): 100%
- O6 (%) ([9]; Reaction 4: NmLgtA +, UDP −): 100%
- O6 (%) ([4]; UDP 0 (nM)): 100%
- O4 (%) ([4]; UDP 1 (nM)): 6.7%
- O5 (%) ([4]; UDP 1 (nM)): 2.6%
- O6 (%) ([4]; UDP 1 (nM)): 81.6%
- O8 (%) ([4]; UDP 1 (nM)): 7.9%
- O10 (%) ([4]; UDP 1 (nM)): 0.8%
- O1 (%) ([4]; UDP 5 (nM)): 3.4%
- O2 (%) ([4]; UDP 5 (nM)): 1.5%
- O3 (%) ([4]; UDP 5 (nM)): 0.6%
- O4 (%) ([4]; UDP 5 (nM)): 16.9%
- O5 (%) ([4]; UDP 5 (nM)): 4.2%
- O6 (%) ([4]; UDP 5 (nM)): 58.0%
- O7 (%) ([4]; UDP 5 (nM)): 0.4%
- O8 (%) ([4]; UDP 5 (nM)): 12.8%
- O10 (%) ([4]; UDP 5 (nM)): 1.9%
- O12 (%) ([4]; UDP 5 (nM)): 0.2%
- O1 (%) ([4]; UDP 10 (nM)): 3.4%
- O2 (%) ([4]; UDP 10 (nM)): 7.8%
- O3 (%) ([4]; UDP 10 (nM)): 1.5%
- O4 (%) ([4]; UDP 10 (nM)): 18.9%
- O5 (%) ([4]; UDP 10 (nM)): 3.8%
- O6 (%) ([4]; UDP 10 (nM)): 38.0%
- O7 (%) ([4]; UDP 10 (nM)): 1.8%
- O8 (%) ([4]; UDP 10 (nM)): 18.6%
- O9 (%) ([4]; UDP 10 (nM)): 0.7%
- O10 (%) ([4]; UDP 10 (nM)): 4.2%
- O12 (%) ([4]; UDP 10 (nM)): 1.1%
- GlcAβ1-4GlcNAcαProNHFmoc (%) [5]: 9.8 ± 0.4%
- efficiency of GlcAβProNHFmoc (O1) over GlcNAcαProNHFmoc as substrate in disaccharide production [6]: 130 fold
- GlcNAcα1-4GlcAβProNHFmoc (%) ([6]; enzyme 0.06 mg/mL): 50.8 ± 6.0%
- GlcNAcα1-4GlcAβProNHFmoc (%) ([6]; enzyme 1.5 mg/mL): 100%
